B1: Chromodomain-helicase-DNA-binding protein 5, residues 411 to 463; numbered along this chain, Q8TDI0 (parent)
chain: EEDDHMEFCRVCKDGGELLCCDACPSSYHLHCLNPPLPEIPNGEWLCPRCTCP

± gives the uncertainty stated by the source.

The variants in the data set derive from B1. Briefly: abundance fitness (aPCA) (normalised: wild type 0, dead -1); higher = more abundant; growth selection in yeast, the domain comes from the species named. The following applies: Homo sapiens.
W45I: the abundance fitness was -0.667 ± 0.16.

Turning to W45D, the abundance fitness was -0.761 ± 0.18.

For the variant W45C, the abundance fitness is -0.604 ± 0.1.

W45L: the abundance fitness was -0.52 ± 0.047.

Turning to W45H, the abundance fitness was -0.512 ± 0.2.

For the variant W45E, the abundance fitness was -0.523 ± 0.083.

Consider W45V, for which the abundance fitness was -0.579 ± 0.046.

Turning to W45F, the abundance fitness is -0.593 ± 0.2.

On to W45M, for which the abundance fitness was -0.491 ± 0.088.

For the variant W45T, the abundance fitness is -0.7 ± 0.082.

In the case of W45S, the abundance fitness was -0.459 ± 0.071.

Take W45G: the abundance fitness was -0.457 ± 0.045.

As to W45Q, the abundance fitness is -0.506 ± 0.061.

W45P: the abundance fitness was -0.472 ± 0.067.

W45Y: the abundance fitness was -0.299 ± 0.1.

Turning to W45A, the abundance fitness was -0.45 ± 0.058.

In the case of W45R, the abundance fitness is -0.449 ± 0.043.

Regarding P41S, the abundance fitness was 0.047 ± 0.078.

Take P41N: the abundance fitness was found to be 0.168 ± 0.15.

As for P41D, the abundance fitness was 0.246 ± 0.12.

Turning to P41W, the abundance fitness is -0.393 ± 0.11.

On to P41G, for which the abundance fitness is 0.064 ± 0.078.

With P41L, the abundance fitness is -0.019 ± 0.059.

For P41Q, the abundance fitness is -0.051 ± 0.11.

Turning to P41V, the abundance fitness stood at 0.043 ± 0.069.

In the case of P41I, the abundance fitness is -0.159 ± 0.14.

As for P41T, the abundance fitness amounted to 0.002 ± 0.073.

P41A: the abundance fitness was -0.144 ± 0.087.

As for P41Y, the abundance fitness was -0.043 ± 0.2.

As for P41M, the abundance fitness is -0.262 ± 0.091.

As to P41R, the abundance fitness is -0.004 ± 0.045.

In the case of Y28N, the abundance fitness was -0.608 ± 0.13.

As for Y28I, the abundance fitness is -0.535 ± 0.11.

Turning to Y28F, the abundance fitness is -0.007 ± 0.046.

With Y28H, the abundance fitness was -0.376 ± 0.12.

Turning to Y28R, the abundance fitness was -0.527 ± 0.053.

As to Y28M, the abundance fitness is -0.262 ± 0.045.

With Y28W, the abundance fitness is -0.188 ± 0.047.

Y28Q: the abundance fitness is -0.454 ± 0.062.

Turning to Y28K, the abundance fitness was -0.481 ± 0.05.

Turning to Y28G, the abundance fitness was -0.536 ± 0.059.

With Y28E, the abundance fitness is -0.853 ± 0.083.

As to Y28P, the abundance fitness is -0.565 ± 0.076.

Regarding Y28T, the abundance fitness is -0.542 ± 0.063.

Take Y28C: the abundance fitness is -0.653 ± 0.095.

Turning to Y28S, the abundance fitness was -0.679 ± 0.058.

For the variant Y28V, the abundance fitness was -0.428 ± 0.064.

On to Y28D, for which the abundance fitness was -0.405 ± 0.076.

For the variant C32K, the abundance fitness is -0.66 ± 0.14.

Take C32G: the abundance fitness is -0.985 ± 0.084.

Regarding C32A, the abundance fitness was -0.768 ± 0.11.

As to C32W, the abundance fitness is -0.967 ± 0.13.

Turning to C32I, the abundance fitness was -0.979 ± 0.19.

Take C32S: the abundance fitness is -1.05 ± 0.14.

For C32L, the abundance fitness is -0.716 ± 0.097.

C32R: the abundance fitness was -1 ± 0.083.

On to C32V, for which the abundance fitness is -0.963 ± 0.093.

C32F: the abundance fitness is -0.758 ± 0.21.

For the variant C32E, the abundance fitness was -0.264 ± 0.12.

In the case of C32Y, the abundance fitness is -0.846 ± 0.18.

As to C32Q, the abundance fitness was -0.72 ± 0.047.

C32M: the abundance fitness was -0.736 ± 0.15.

With C32N, the abundance fitness was -0.395 ± 0.13.

With C32P, the abundance fitness is -0.638 ± 0.14.

Consider H31A, for which the abundance fitness was -0.092 ± 0.084.

For H31W, the abundance fitness is -0.361 ± 0.11.

On to H31E, for which the abundance fitness came out at 0.074 ± 0.093.

On to H31S, for which the abundance fitness is -0.075 ± 0.08.

On to H31C, for which the abundance fitness was -0.421 ± 0.14.

For H31K, the abundance fitness is -0.029 ± 0.1.

Consider H31V, for which the abundance fitness is -0.268 ± 0.084.

Consider H31P, for which the abundance fitness is -0.406 ± 0.13.

On to H31T, for which the abundance fitness is -0.16 ± 0.1.

For the variant H31L, the abundance fitness is -0.246 ± 0.086.

On to H31F, for which the abundance fitness stood at 0.516 ± 0.14.

Turning to H31D, the abundance fitness was found to be 0.072 ± 0.12.

H31N: the abundance fitness is 0.121 ± 0.069.

Regarding H31G, the abundance fitness turned out to be 0.089 ± 0.079.

On to H31I, for which the abundance fitness is -0.044 ± 0.13.

Regarding H31Q, the abundance fitness is -0.436 ± 0.15.

Turning to H31R, the abundance fitness turned out to be 0.05 ± 0.049.

Turning to H31M, the abundance fitness is -0.088 ± 0.1.

Consider H31Y, for which the abundance fitness was -0.455 ± 0.12.

In the case of G43A, the abundance fitness is 0.047 ± 0.076.

On to G43L, for which the abundance fitness was -0.152 ± 0.068.

Take G43F: the abundance fitness was 0.149 ± 0.13.

On to G43I, for which the abundance fitness is -0.392 ± 0.14.

In the case of G43Q, the abundance fitness was 0.039 ± 0.12.

In the case of G43K, the abundance fitness is -0.037 ± 0.12.

Regarding G43E, the abundance fitness turned out to be 0.003 ± 0.071.

For G43H, the abundance fitness is -0.148 ± 0.1.

As for G43R, the abundance fitness was -0.074 ± 0.08.

As for G43V, the abundance fitness is 0.004 ± 0.066.

Consider G43P, for which the abundance fitness was -0.041 ± 0.047.

In the case of G43S, the abundance fitness was -0.008 ± 0.065.

Take G43N: the abundance fitness came out at 0.039 ± 0.07.

As to G43M, the abundance fitness was -0.333 ± 0.2.

With G43C, the abundance fitness was -0.112 ± 0.087.

In the case of G43T, the abundance fitness was -0.142 ± 0.09.

Turning to G43D, the abundance fitness was -0.238 ± 0.11.

Regarding E39M, the abundance fitness is -0.113 ± 0.22.

As to E39C, the abundance fitness was -0.438 ± 0.37.

Consider E39I, for which the abundance fitness is -0.138 ± 0.23.

For the variant E39H, the abundance fitness is 0.098 ± 0.17.

Turning to E39Q, the abundance fitness is 0.008 ± 0.19.

With E39D, the abundance fitness is -0.203 ± 0.14.

E39P: the abundance fitness was 0.139 ± 0.12.

Consider E39G, for which the abundance fitness was -0.135 ± 0.092.

Regarding E39K, the abundance fitness is -0.104 ± 0.12.

E39A: the abundance fitness stood at 0.006 ± 0.084.

Regarding E39R, the abundance fitness was -0.301 ± 0.088.

Consider E39W, for which the abundance fitness was -0.617 ± 0.24.

Consider E39F, for which the abundance fitness was -0.235 ± 0.27.

Take E39N: the abundance fitness was 0.116 ± 0.18.

For E39L, the abundance fitness was -0.418 ± 0.13.

For E39S, the abundance fitness stood at 0.091 ± 0.07.

As to E39T, the abundance fitness was -0.209 ± 0.14.

As to E39V, the abundance fitness is 0.025 ± 0.068.

As to E39Y, the abundance fitness is -0.329 ± 0.37.

Turning to P38L, the abundance fitness worked out at 0.263 ± 0.15.

Consider P38C, for which the abundance fitness is -0.63 ± 0.43.

With P38M, the abundance fitness was -0.563 ± 0.44.

Regarding P38A, the abundance fitness was 0.358 ± 0.22.

Turning to P38H, the abundance fitness was -0.016 ± 0.27.

In the case of P38S, the abundance fitness is -0.13 ± 0.08.

Turning to P38I, the abundance fitness was -0.564 ± 0.29.

As to P38F, the abundance fitness is -0.083 ± 0.21.

P38Y: the abundance fitness stood at 0.17 ± 0.19.

Regarding P38T, the abundance fitness is -0.198 ± 0.31.

Take N42P: the abundance fitness came to 0.16 ± 0.075.

Consider N42D, for which the abundance fitness is -0.028 ± 0.049.

For the variant N42I, the abundance fitness was -0.346 ± 0.19.

With N42K, the abundance fitness is -0.144 ± 0.093.

Turning to N42F, the abundance fitness was -0.266 ± 0.083.

N42T: the abundance fitness was determined as 0.014 ± 0.065.

In the case of N42C, the abundance fitness was determined as 0.033 ± 0.1.

Turning to N42M, the abundance fitness was -0.137 ± 0.088.

For the variant N42H, the abundance fitness was -0.054 ± 0.1.

N42Y: the abundance fitness came out at 0.059 ± 0.12.

Turning to N42G, the abundance fitness was found to be 0.12 ± 0.06.

As for N42E, the abundance fitness was -0.022 ± 0.071.

As to N42W, the abundance fitness is -0.142 ± 0.092.

For N42S, the abundance fitness worked out at 0.058 ± 0.053.

As to N42R, the abundance fitness was -0.052 ± 0.075.

Regarding N42A, the abundance fitness amounted to 0.011 ± 0.068.

In the case of N42Q, the abundance fitness was -0.211 ± 0.15.

As for N34P, the abundance fitness was -0.463 ± 0.14.

As to N34W, the abundance fitness was -0.204 ± 0.067.

For N34G, the abundance fitness is -0.169 ± 0.063.

As for N34S, the abundance fitness was determined as 0.097 ± 0.06.

For N34E, the abundance fitness is -0.036 ± 0.069.

Take N34K: the abundance fitness amounted to 0.046 ± 0.1.

For N34T, the abundance fitness is -0.189 ± 0.099.

In the case of N34V, the abundance fitness was -0.067 ± 0.073.

With N34Y, the abundance fitness is -0.139 ± 0.17.

For the variant N34H, the abundance fitness is -0.303 ± 0.2.

As for N34R, the abundance fitness is -0.039 ± 0.057.

With N34L, the abundance fitness was -0.015 ± 0.048.

As for N34A, the abundance fitness was -0.018 ± 0.052.

For N34F, the abundance fitness stood at 0.066 ± 0.096.

As to N34D, the abundance fitness was -0.27 ± 0.12.

N34Q: the abundance fitness was 0.021 ± 0.064.

For N34I, the abundance fitness is -0.132 ± 0.15.

For N34M, the abundance fitness was -0.221 ± 0.11.

Take N34C: the abundance fitness is -0.074 ± 0.1.

As for L33K, the abundance fitness was -0.699 ± 0.049.

Turning to L33R, the abundance fitness was -0.6 ± 0.053.

Values taken from the Human Domainome abundance scans (Beltran et al. 2025).
